Laboratory results from the Immune Epitope Database (IEDB).

Experiments:
HLA-B*07:02 = assay: IEDB peptide-MHC binding, purified MHC/competitive/fluorescence; ≥ and ≤ were set here for values at or beyond the usual limits of such assays
HLA-A*02:17 = assay: IEDB peptide-MHC binding, purified MHC/competitive/radioactivity; filed as Kd, often an IC50 or EC50 that approximates it; ≥ and ≤ were set here for values at or beyond the usual limits of such assays
HLA-B*08:01 [1] = assay: as above
HLA-A*02:03 [2] = assay: as above; conditions: source organism: Dengue virus 3 Sri Lanka/1266/2000
HLA-A*02:01 [3] = assay: as above
HLA-B*15:17 = assay: IEDB peptide-MHC binding, purified MHC/direct/fluorescence; filed as Kd, often an IC50 or EC50 that approximates it; ≥ and ≤ were set here for values at or beyond the usual limits of such assays; conditions: source organism: Camelpox virus M-96
HLA-A*69:01 = assay: as above; conditions: source organism: Camelpox virus M-96
HLA-A*31:01 = assay: as above; conditions: source organism: Camelpox virus M-96
HLA-A*03:01 [4] = assay: as above; conditions: source organism: Camelpox virus M-96
HLA-B*48:01 = assay: as above; conditions: source organism: Camelpox virus M-96
HLA-B*57:01 = assay: as above; conditions: source organism: Camelpox virus M-96
HLA-B*40:01 = assay: as above; conditions: source organism: Camelpox virus M-96
HLA-B*27:05 = assay: as above; conditions: source organism: Camelpox virus M-96
HLA-B*46:01 = assay: as above; conditions: source organism: Camelpox virus M-96
HLA-A*01:01 = assay: as above; conditions: source organism: Camelpox virus M-96
HLA-B*15:01 [5] = assay: as above; conditions: source organism: Camelpox virus M-96
HLA-A*02:01 [6] = assay: as above; conditions: source organism: Camelpox virus M-96
HLA-B*58:01 = assay: as above; conditions: source organism: Camelpox virus M-96
HLA-A*26:01 = assay: as above; conditions: source organism: Camelpox virus M-96
HLA-A*11:01 [7] = assay: IEDB peptide-MHC binding, purified MHC/competitive/fluorescence; filed as Kd, often an IC50 or EC50 that approximates it; ≥ and ≤ were set here for values at or beyond the usual limits of such assays
HLA-A*02:03 [8] = assay: as above; conditions: source organism: Variola virus
HLA-A*33:01 = assay: IEDB peptide-MHC binding, purified MHC/competitive/radioactivity; filed as Kd, often an IC50 or EC50 that approximates it; ≥ and ≤ were set here for values at or beyond the usual limits of such assays; conditions: source organism: Vaccinia virus WR
HLA-A*68:01 = assay: as above; conditions: source organism: Vaccinia virus WR
HLA-B*08:01 [9] = assay: IEDB peptide-MHC binding, purified MHC/competitive/fluorescence; filed as Kd, often an IC50 or EC50 that approximates it; ≥ and ≤ were set here for values at or beyond the usual limits of such assays
HLA-B*15:01 [10] = assay: as above; conditions: source organism: Vaccinia virus WR
HLA-A*11:01 [11] = assay: IEDB peptide-MHC binding, purified MHC/competitive/fluorescence; ≥ and ≤ were set here for values at or beyond the usual limits of such assays
HLA-A*24:02 = assay: as above
HLA-A*03:01 [12] = assay: as above
HLA-B*15:01 [13] = assay: as above
HLA-A*02:01 [14] = assay: as above
HLA-C*15:02 = assay: IEDB peptide-MHC binding, purified MHC/direct/fluorescence; filed as Kd, often an IC50 or EC50 that approximates it; ≥ and ≤ were set here for values at or beyond the usual limits of such assays
HLA-C*14:02 = assay: as above
HLA-A*24:03 = assay: as above; conditions: source organism: Vibrio cholerae
HLA-A*29:02 = assay: IEDB peptide-MHC binding, purified MHC/competitive/fluorescence; filed as Kd, often an IC50 or EC50 that approximates it; ≥ and ≤ were set here for values at or beyond the usual limits of such assays; conditions: source organism: Clostridium botulinum A str. ATCC 3502
[15] = source organism: Zaire ebolavirus
[16] = source organism: Dengue virus 3 Sri Lanka/1266/2000
[17] = source organism: Vaccinia virus WR
[18] = source organism: Sudan ebolavirus
[19] = source organism: Dengue virus 2 Jamaica/1409/1983
[20] = source organism: Vibrio cholerae 2740-80
[21] = source organism: Clostridium botulinum A str. ATCC 3502

**Q.** With ADDETSSLP as the sequence, how does the IC50 (HLA-B*07:02; [15]) read?
**A.** ≥ 174 µM

**Q.** Which results are given for CLMMILPAA?
**A.** Kd (HLA-A*02:17; [16]): 0.438 µM; Kd (HLA-B*08:01 [1]; [16]): 1.07 µM; Kd (HLA-A*02:03 [2]): 0.00105 µM; Kd (HLA-A*02:01 [3]; [16]): 0.00121 µM

**Q.** Which Kd (HLA-B*15:17) does the source give for DILASIIDY here?
**A.** 0.299 µM

**Q.** What about the Kd (HLA-A*69:01) of the same sequence?
**A.** ≥ 20 µM

**Q.** What about the Kd (HLA-A*31:01) of the same sequence?
**A.** ≥ 20 µM

**Q.** And the Kd (HLA-A*03:01 [4])?
**A.** ≥ 20 µM

**Q.** And the Kd (HLA-B*48:01)?
**A.** ≥ 20 µM

**Q.** What about the Kd (HLA-B*57:01) of the same sequence?
**A.** ≥ 20 µM

**Q.** What about the Kd (HLA-B*40:01) of the same sequence?
**A.** ≥ 20 µM

**Q.** And the Kd (HLA-B*27:05)?
**A.** ≥ 20 µM

**Q.** What about the Kd (HLA-B*46:01) of the same sequence?
**A.** ≥ 20 µM

**Q.** And the Kd (HLA-A*01:01)?
**A.** ≥ 20 µM

**Q.** And the Kd (HLA-B*15:01 [5])?
**A.** ≥ 20 µM

**Q.** And the Kd (HLA-A*02:01 [6])?
**A.** ≥ 20 µM

**Q.** What about the Kd (HLA-B*58:01) of the same sequence?
**A.** ≥ 20 µM

**Q.** What about the Kd (HLA-A*26:01) of the same sequence?
**A.** 0.361 µM

**Q.** And the Kd (HLA-A*11:01 [7]; source organism: Variola virus)?
**A.** ≥ 20 µM

**Q.** What about the Kd (HLA-A*02:03 [8]) of the same sequence?
**A.** 1.85 µM

**Q.** Which results are given for EIKDRILSY?
**A.** Kd (HLA-A*33:01): ≥ 20.5 µM; Kd (HLA-A*68:01): 0.116 µM; Kd (HLA-B*15:17): 0.63 µM; Kd (HLA-A*69:01): ≥ 20 µM; Kd (HLA-A*31:01): ≥ 20 µM; Kd (HLA-A*03:01 [4]): ≥ 20 µM; Kd (HLA-B*48:01): ≥ 20 µM; Kd (HLA-B*57:01): ≥ 20 µM; Kd (HLA-B*40:01): ≥ 20 µM; Kd (HLA-B*27:05): ≥ 20 µM; Kd (HLA-A*01:01): ≥ 20 µM; Kd (HLA-A*02:01 [6]): ≥ 20 µM; Kd (HLA-B*58:01): ≥ 20 µM; Kd (HLA-A*26:01): 0.003 µM; Kd (HLA-A*11:01 [7]; [17]): ≥ 20 µM; Kd (HLA-B*08:01 [9]; [17]): 2.02 µM; Kd (HLA-B*15:01 [10]): 0.165 µM

**Q.** For FVFTLTVPSER, which Kd (HLA-A*11:01 [7]; source organism: Influenza A virus (A/swine/Hannover/1/1981(H1N1))) is on record?
**A.** 2.84 µM

**Q.** How did the IC50 (HLA-A*11:01 [11]; source organism: Variola virus) turn out when IFSAWISHR was run?
**A.** ≥ 70.7 µM

**Q.** And the IC50 (HLA-A*24:02; source organism: Variola virus)?
**A.** 0.0409 µM

**Q.** And the IC50 (HLA-A*03:01 [12]; source organism: Variola virus)?
**A.** 1.01 µM

**Q.** And the IC50 (HLA-B*07:02; source organism: Variola virus)?
**A.** ≥ 577 µM

**Q.** Which IC50 (HLA-A*24:02; [15]) does the source give for KLFLESGAV here?
**A.** ≥ 184 µM

**Q.** And the IC50 (HLA-A*03:01 [12]; [15])?
**A.** ≥ 280 µM

**Q.** And the IC50 (HLA-B*15:01 [13]; [15])?
**A.** ≥ 81.3 µM

**Q.** And the IC50 (HLA-A*02:01 [14]; [15])?
**A.** 1.76 µM

**Q.** For KLYLVDYGL, which IC50 (HLA-A*24:02; [17]) is on record?
**A.** 16.5 µM

**Q.** And the IC50 (HLA-A*03:01 [12]; [17])?
**A.** ≥ 130 µM

**Q.** And the IC50 (HLA-B*15:01 [13]; [17])?
**A.** 35.7 µM

**Q.** How did the IC50 (HLA-B*15:01 [13]; source organism: Vaccinia virus Copenhagen) turn out when KQDRSDGYF was run?
**A.** 60.3 µM

**Q.** For LFKIDNNTF, which IC50 (HLA-A*24:02; [18]) is on record?
**A.** 0.0253 µM

**Q.** What about the IC50 (HLA-B*15:01 [13]; [18]) of the same sequence?
**A.** 14.4 µM

**Q.** With LMGLGKGWPL as the sequence, how does the Kd (HLA-A*02:17; [19]) read?
**A.** 0.917 µM

**Q.** And the Kd (HLA-B*08:01 [1]; [19])?
**A.** 0.304 µM

**Q.** What about the Kd (HLA-A*02:01 [3]; [19]) of the same sequence?
**A.** 0.162 µM

**Q.** How did the IC50 (HLA-B*15:01 [13]; [15]) turn out when LQVSDVDKL was run?
**A.** ≥ 75.8 µM

**Q.** And the IC50 (HLA-A*02:01 [14]; [15])?
**A.** 5.69 µM

**Q.** LYKSINVEY was tested. Which IC50 (HLA-A*24:02; [17]) did it give?
**A.** 0.11 µM

**Q.** And the IC50 (HLA-B*15:01 [13]; [17])?
**A.** 7.65 µM

**Q.** How did the Kd (HLA-B*08:01 [9]; source organism: Influenza A virus (A/Wellington/8/2004(H3N2))) turn out when QARRMVQAM was run?
**A.** 0.0863 µM

**Q.** What does the source list for QLNDTIHLH?
**A.** IC50 (HLA-A*11:01 [11]; [18]): 6.06 µM; IC50 (HLA-A*03:01 [12]; [18]): 50.4 µM; IC50 (HLA-B*15:01 [13]; [18]): 53.1 µM; IC50 (HLA-A*02:01 [14]; [18]): 39.9 µM

**Q.** How did the Kd (HLA-C*15:02; [20]) turn out when RFNNLTVYF was run?
**A.** ≥ 20 µM

**Q.** And the Kd (HLA-C*14:02; [20])?
**A.** 2.86 µM

**Q.** And the Kd (HLA-A*24:03)?
**A.** 0.0033 µM

**Q.** How did the IC50 (HLA-B*07:02; [15]) turn out when RPIQNVPGP was run?
**A.** 28.7 µM

**Q.** And the IC50 (HLA-A*02:01 [14]; [15])?
**A.** ≥ 465 µM

**Q.** For RPQKIWMAP, which IC50 (HLA-B*07:02; [15]) is on record?
**A.** 7.1 µM

**Q.** With SNRTPTVAP as the sequence, how does the IC50 (HLA-A*24:02; [15]) read?
**A.** ≥ 94.2 µM

**Q.** And the IC50 (HLA-B*07:02; [15])?
**A.** 41.5 µM

**Q.** What about the IC50 (HLA-A*02:01 [14]; [15]) of the same sequence?
**A.** ≥ 189 µM

**Q.** Which IC50 (HLA-A*24:02; [18]) does the source give for SPGMVPLHI here?
**A.** 24.4 µM

**Q.** And the IC50 (HLA-B*07:02; [18])?
**A.** 6.66 µM

**Q.** With VIILFQRTF as the sequence, how does the IC50 (HLA-A*24:02; [15]) read?
**A.** 0.0558 µM

**Q.** What about the IC50 (HLA-B*15:01 [13]; [15]) of the same sequence?
**A.** ≥ 85.9 µM

**Q.** And the IC50 (HLA-A*02:01 [14]; [15])?
**A.** ≥ 818 µM

**Q.** Which Kd (HLA-C*15:02; [21]) does the source give for YMIGYTAYY here?
**A.** 4.02 µM

**Q.** What about the Kd (HLA-C*14:02; [21]) of the same sequence?
**A.** ≤ 0.001 µM

**Q.** What about the Kd (HLA-A*29:02) of the same sequence?
**A.** ≤ 0.0001 µM
